According to paper PMC3836487:

Target: CFP
Assay: FRET or BRET; acceptor photobleaching FRET in live C. crescentus cells on 1 % agarose pads; YFP (acceptor) bleached for 20 s at 532 nm, increase of CFP (donor) emission recorded; cells grown in M2G, 0.3 % xylose for 1 h; apparent FRET efficiency, above 0.5 % taken as an interaction, above 1 % as a strong one

apparent FRET efficiency: < 0.5%
Substance: YFP
